Here are results for one molecule from US8415393B2, “Anti-bacterial drug targeting of genome maintenance interfaces” (Wisconsin Alumni Research Foundation, priority 2007, dated 2013).

Common to all, as to experiment: fluorescence anisotropy equilibrium binding (Kd,app), ExoI variant titrated into fluorescein-labeled peptide
Assay [1] deals with T1, ExoI Gln452Ala variant (Escherichia coli, UniProt P04995 1-475).
T1 construct: helical domain residue; also called Q452A; Gln452 variant
T1 sequence: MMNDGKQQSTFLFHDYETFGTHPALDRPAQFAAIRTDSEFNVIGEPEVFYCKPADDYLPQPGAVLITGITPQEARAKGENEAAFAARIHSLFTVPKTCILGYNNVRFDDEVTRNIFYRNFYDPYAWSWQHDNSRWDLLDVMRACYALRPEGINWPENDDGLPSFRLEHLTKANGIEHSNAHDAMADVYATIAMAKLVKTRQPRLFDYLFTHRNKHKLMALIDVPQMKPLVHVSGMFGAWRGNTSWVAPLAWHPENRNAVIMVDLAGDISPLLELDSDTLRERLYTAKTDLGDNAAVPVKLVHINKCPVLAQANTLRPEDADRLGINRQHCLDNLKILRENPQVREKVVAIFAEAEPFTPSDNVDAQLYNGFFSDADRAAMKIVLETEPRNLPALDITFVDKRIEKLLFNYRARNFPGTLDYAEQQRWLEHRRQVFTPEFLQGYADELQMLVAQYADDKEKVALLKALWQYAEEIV

In assay [2] the target is T2, ExoI Arg316Ala variant (Escherichia coli, UniProt P04995 1-475).
T2 construct: residue flanks peptide A; also called R316A; Arg316 variant
T2 sequence: T1 sequence with R316A, A452Q

For assay [3], the target named is T3, ExoI Gln311Ala variant (Escherichia coli, UniProt P04995 1-475).
T3 construct: also called Q311A; Gln311 variant
T3 sequence: T1 sequence with Q311A, A452Q

Assay [4] has as its target T4, ExoI Asp319Ala variant (Escherichia coli, UniProt P04995 1-475).
T4 construct: also called D319A; Asp319 variant
T4 sequence: T1 sequence with D319A, A452Q

Where a chain is given by its changes, count along the chain named. Where no end group is shown, it is not given here. fluorescein = fluorescein moiety attached to the N-terminus of the peptide (N-terminal fluorescein label)

On to fluorescein-WMDFDDDIPF (also called F-SSB-Ct; F-WT) [fluorescein-labeled SSB C-terminal peptide (fluorescein-WMDFDDDIPF)], for which the Kd in assay [1] was 212 nM; in assay [2], above 1000 nM; in assay [3], 304 nM; in assay [4], 299 nM.
